# From patent US20030144495, “Drosophila recombination-associated protein and methods for use” (Albert Einstein College of Medicine of Yeshiva University, published 2003)
# Biological target: RecA (Escherichia coli, UniProt P0A7G6 P0A7G6:2-353)
# Assay: EMSA; gel shift in presence of ATP-gamma-S, 20 mM Tris pH 7.35, 10 mM MgCl2, 37 C
# Details: tags: commercial, Promega/Pharmacia/USB; label: 5'-32P
# Experimental: Any oligonucleotide may be used for this assay. For this experiment, an oligonucleotide (33-mer) derived from the central portion of the pUC19 poly linker 5′-[…]-3′ [SEQ ID NO: 20] was endlabeled at the 5′ end with ³²P-ATP using T4 polynucleotide kinase. The oligonucleotide was purified on Qiaquick columns using buffer PN (Qiagen) and the OD at 260 nm indicated a concentration of 5 ng/μl. Any oligonucleotide sequence may be used in this experiment. The SEQ ID NO: 16 oligonucleotide was incubated with 60 ng of DRAP or RecA in various buffers for 30 minutes at 37° C. A loading buffer was added and the material separated on a 6% 1×TAE, polyacrylamide minigel at 250 V for 14 minutes. The gel was dried and exposed to film with one intensifying screen for ˜16 hrs. at −80° C. No degradation of the oligonucleotide was observed. (FIG. 8.) Gel shifting with RecA in the presence of […] is consistent with the known properties of that protein.
# Sequence of RecA (P0A7G6 2-353, one chain of several): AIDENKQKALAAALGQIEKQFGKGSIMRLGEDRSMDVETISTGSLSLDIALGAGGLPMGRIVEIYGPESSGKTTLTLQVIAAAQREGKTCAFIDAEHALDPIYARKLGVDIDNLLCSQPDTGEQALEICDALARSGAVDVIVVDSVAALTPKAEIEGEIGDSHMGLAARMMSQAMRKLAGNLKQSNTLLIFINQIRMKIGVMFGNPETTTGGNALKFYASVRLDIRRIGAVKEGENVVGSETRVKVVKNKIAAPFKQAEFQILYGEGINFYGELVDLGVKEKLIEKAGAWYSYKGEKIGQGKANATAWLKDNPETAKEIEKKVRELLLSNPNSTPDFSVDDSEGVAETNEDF
binder,measurement,value
GGTACCCGGGGATCCTCTAGAGTCGACCTGCAG (ssDNA) [pUC19 polylinker 33-mer],binding result,binds
